The record followed here is article doi:10.1101/487769.

This experiment addresses Hfq-FLAG (Yersinia pestis Hfq with C-terminal 3 x Flag tag) (Yersinia pestis). Put plainly: native gel or EMSA. On the technique in general: A gel shift assay detects complexes by their altered migration in electrophoresis.

Values joined by “and” are separate entries in the source; they are usually repeats but may differ in a detail not shown here. Identical values can stand only once.

Regarding “Hfq-FLAG (Yersinia pestis Hfq with C-terminal 3 x Flag tag) (natural protein)”, the stoichiometry N (commonly the number of molecules, sites or subunits per partner or assembly) is 3 and 6.
